These results are taken from the Human Domainome abundance scans (Beltran et al. 2025).

± gives the uncertainty stated by the source.

The chains are these.
B1: Mineralocorticoid receptor, residues 600 to 675; numbered along this chain, P08235 (parent)
chain: SKICLVCGDEASGCHYGVVTCGSCKVFFKRAVEGQHNYLCAGRNDCIIDKIRRKNCPACRLQKCLQAGMNLGARKS

The variants in this data set derive from B1. The experiment in a line: abundance fitness (aPCA) (normalised: wild type 0, dead -1); higher = more abundant; growth selection in yeast, the domain comes from the species named. The settings on record: Homo sapiens.
With C24N, the abundance fitness was -0.632 ± 0.17.

On to C24K, for which the abundance fitness is -1.03 ± 0.34.

C24W: the abundance fitness is -1.11 ± 0.19.

L61N: the abundance fitness is -0.338 ± 0.094.

For L61I, the abundance fitness was -0.155 ± 0.086.

With L39C, the abundance fitness was found to be 0.027 ± 0.049.

Regarding L39I, the abundance fitness is -0.043 ± 0.047.

Take L39T: the abundance fitness is -0.077 ± 0.044.

With Y38R, the abundance fitness is -0.088 ± 0.05.

Turning to I48H, the abundance fitness is -0.2 ± 0.075.

With E10C, the abundance fitness was -0.221 ± 0.083.

Consider E10R, for which the abundance fitness is -0.1 ± 0.044.

E10A: the abundance fitness was -0.063 ± 0.045.

Regarding V32Y, the abundance fitness was -0.1 ± 0.1.

Take R43F: the abundance fitness was -0.045 ± 0.035.

Take R43T: the abundance fitness was -0.001 ± 0.032.

As for R43K, the abundance fitness stood at 0.029 ± 0.049.

With Q62C, the abundance fitness is -0.002 ± 0.056.

For the variant C21P, the abundance fitness was -1.05 ± 0.19.

In the case of C21F, the abundance fitness was -0.515 ± 0.19.

With C21I, the abundance fitness was -0.803 ± 0.26.

Turning to H36I, the abundance fitness is -0.022 ± 0.043.

On to H36Q, for which the abundance fitness is -0.004 ± 0.042.

On to H36G, for which the abundance fitness was -0.012 ± 0.027.

As to C7W, the abundance fitness was -0.765 ± 0.2.

C56R: the abundance fitness is -0.358 ± 0.33.

In the case of C4E, the abundance fitness is -0.727 ± 0.11.

For the variant C4W, the abundance fitness was -1.06 ± 0.27.

Turning to C4G, the abundance fitness was -0.842 ± 0.1.

On to C4H, for which the abundance fitness was -0.77 ± 0.21.

As for C4N, the abundance fitness was -1.04 ± 0.37.

For the variant C4A, the abundance fitness is -1.37 ± 0.35.

In the case of S12I, the abundance fitness is 0.043 ± 0.11.

Take S12C: the abundance fitness was -0.142 ± 0.11.

Turning to N44H, the abundance fitness was -0.045 ± 0.08.

Regarding N44A, the abundance fitness is -0.016 ± 0.041.

On to N44L, for which the abundance fitness was -0.16 ± 0.038.

As for G17L, the abundance fitness is -0.142 ± 0.042.

As for G17T, the abundance fitness is -0.073 ± 0.064.

In the case of C46N, the abundance fitness was -0.921 ± 0.15.

On to C46M, for which the abundance fitness was -0.81 ± 0.3.

For the variant A41L, the abundance fitness is -0.103 ± 0.041.

As for A41M, the abundance fitness was found to be 0.052 ± 0.056.

As to A41Q, the abundance fitness was -0.074 ± 0.069.

As to D45P, the abundance fitness was -0.149 ± 0.046.

Turning to D45G, the abundance fitness was -0.079 ± 0.032.

As to D45T, the abundance fitness is -0.104 ± 0.038.

For the variant D45R, the abundance fitness is -0.024 ± 0.035.

Turning to V6Q, the abundance fitness was -0.803 ± 0.28.

Turning to V6L, the abundance fitness was -0.375 ± 0.047.

On to V6D, for which the abundance fitness is -0.765 ± 0.45.

In the case of V6K, the abundance fitness was -0.83 ± 0.23.

As to V6C, the abundance fitness is -0.228 ± 0.071.

P57R: the abundance fitness is -0.115 ± 0.044.

For the variant P57A, the abundance fitness is -0.04 ± 0.042.

As for R30H, the abundance fitness was 0.043 ± 0.21.

For the variant S76C, the abundance fitness was -0.128 ± 0.063.

As for S76N, the abundance fitness was -0.071 ± 0.094.

Regarding Y16V, the abundance fitness stood at 0.013 ± 0.043.

Consider Y16A, for which the abundance fitness is -0.039 ± 0.046.

On to Y16H, for which the abundance fitness is -0.022 ± 0.082.

For Y16I, the abundance fitness is -0.213 ± 0.099.

Take Y16N: the abundance fitness is -0.147 ± 0.11.

S23W: the abundance fitness is -0.193 ± 0.076.

Take S23E: the abundance fitness came to 0.003 ± 0.053.

Turning to S23Q, the abundance fitness is -0.013 ± 0.073.

Regarding S23F, the abundance fitness was -0.168 ± 0.083.

For C59W, the abundance fitness was -0.855 ± 0.098.

As to C59T, the abundance fitness was -0.654 ± 0.066.

With N37P, the abundance fitness was -0.083 ± 0.041.

On to N37G, for which the abundance fitness was -0.061 ± 0.03.

Consider K63T, for which the abundance fitness was -0.024 ± 0.045.

As for K63H, the abundance fitness is -0.099 ± 0.044.

On to G8R, for which the abundance fitness is -0.043 ± 0.039.

For the variant T20L, the abundance fitness is -0.17 ± 0.048.

As to T20S, the abundance fitness was -0.017 ± 0.049.

With T20A, the abundance fitness is -0.072 ± 0.051.

For the variant T20N, the abundance fitness is 0.064 ± 0.11.

Regarding A58E, the abundance fitness is -0.12 ± 0.053.

For G34H, the abundance fitness was -0.078 ± 0.069.

Take G68E: the abundance fitness is -0.146 ± 0.052.

Consider V26M, for which the abundance fitness was -0.058 ± 0.064.

For the variant A11F, the abundance fitness is -0.194 ± 0.15.

With A11D, the abundance fitness was -0.134 ± 0.072.

A11Y: the abundance fitness was -0.245 ± 0.077.

Consider K29G, for which the abundance fitness is -0.048 ± 0.044.

In the case of K29R, the abundance fitness is -0.021 ± 0.046.

In the case of M69F, the abundance fitness was -0.239 ± 0.086.

I51M: the abundance fitness was 0.024 ± 0.11.

Take I51P: the abundance fitness is -0.137 ± 0.066.

As to E33W, the abundance fitness was -0.099 ± 0.08.

E33V: the abundance fitness is -0.01 ± 0.04.

Take E33A: the abundance fitness is -0.28 ± 0.05.

As to E33Y, the abundance fitness was -0.088 ± 0.061.

Turning to K2Y, the abundance fitness is -0.085 ± 0.098.

For the variant A31F, the abundance fitness was -0.104 ± 0.22.

A31V: the abundance fitness was found to be 0.194 ± 0.31.

Regarding Q35Y, the abundance fitness was -0.112 ± 0.056.

Regarding Q35G, the abundance fitness is -0.023 ± 0.042.

As to Q35H, the abundance fitness is -0.022 ± 0.051.

For the variant A67Q, the abundance fitness was -0.17 ± 0.093.

With A67I, the abundance fitness was -0.076 ± 0.18.

For G42N, the abundance fitness is -0.025 ± 0.046.

For G42R, the abundance fitness is -0.062 ± 0.045.

In the case of G42Y, the abundance fitness was -0.051 ± 0.045.

C14W: the abundance fitness was -0.049 ± 0.05.

Consider C14A, for which the abundance fitness is -0.027 ± 0.046.

For C14P, the abundance fitness was -0.072 ± 0.074.

L5M: the abundance fitness is -0.133 ± 0.058.

Consider L5W, for which the abundance fitness is -0.106 ± 0.052.

Regarding L5S, the abundance fitness was -0.075 ± 0.04.

As to F28H, the abundance fitness was -0.445 ± 0.33.

Consider F28Y, for which the abundance fitness is -0.095 ± 0.18.

In the case of F28Q, the abundance fitness is -0.582 ± 0.14.

As to L65Y, the abundance fitness was -0.001 ± 0.076.

On to L65E, for which the abundance fitness turned out to be 0.031 ± 0.049.

In the case of V19G, the abundance fitness is -0.082 ± 0.035.

In the case of V19F, the abundance fitness came out at 0.047 ± 0.076.

Turning to N55Y, the abundance fitness is -0.155 ± 0.054.

With G13R, the abundance fitness amounted to 0.028 ± 0.043.

As to G22K, the abundance fitness is -0.063 ± 0.059.

Turning to G22D, the abundance fitness is 0.008 ± 0.11.

G22Q: the abundance fitness is -0.16 ± 0.06.

On to K75Q, for which the abundance fitness worked out at 0.05 ± 0.062.

Turning to K75C, the abundance fitness was -0.038 ± 0.071.

As to K75N, the abundance fitness was -0.092 ± 0.08.

Turning to K75Y, the abundance fitness is -0.051 ± 0.073.

G72W: the abundance fitness is -0.124 ± 0.047.

Consider G72K, for which the abundance fitness was -0.048 ± 0.061.

For the variant G72T, the abundance fitness was -0.115 ± 0.053.

Turning to G72R, the abundance fitness is -0.065 ± 0.035.

Turning to G72C, the abundance fitness turned out to be 0 ± 0.047.

As for G72P, the abundance fitness was determined as 0.011 ± 0.06.

For the variant C40W, the abundance fitness was -0.697 ± 0.12.

C40V: the abundance fitness is -1.23 ± 0.22.

In the case of Q66A, the abundance fitness is 0.011 ± 0.054.

As to Q66M, the abundance fitness is -0.065 ± 0.05.

With D49P, the abundance fitness was -0.327 ± 0.049.

With V18M, the abundance fitness was -0.233 ± 0.25.

Take V18P: the abundance fitness was -0.157 ± 0.062.

Consider K54D, for which the abundance fitness is -0.031 ± 0.056.

For K54I, the abundance fitness was -0.018 ± 0.04.

Take I47Y: the abundance fitness was -0.128 ± 0.05.

Regarding I47A, the abundance fitness is -0.035 ± 0.055.

Turning to I47W, the abundance fitness is -0.193 ± 0.1.

In the case of H15C, the abundance fitness is -0.152 ± 0.078.

Take H15V: the abundance fitness is -0.103 ± 0.045.

Regarding H15W, the abundance fitness is 0.029 ± 0.056.

As to H15A, the abundance fitness is -0.062 ± 0.045.

With H15T, the abundance fitness was -0.11 ± 0.052.

For the variant H15P, the abundance fitness was -0.066 ± 0.065.

In the case of N70W, the abundance fitness was -0.087 ± 0.057.

With N70Y, the abundance fitness is -0.009 ± 0.04.

Take N70H: the abundance fitness was -0.031 ± 0.041.

For R53K, the abundance fitness is -0.078 ± 0.07.

As to R53I, the abundance fitness is -0.098 ± 0.14.

In the case of C64L, the abundance fitness was -0.351 ± 0.039.

In the case of C64F, the abundance fitness was -0.466 ± 0.071.

C64T: the abundance fitness is -0.35 ± 0.046.

Regarding K25R, the abundance fitness was -0.051 ± 0.04.

As for R74I, the abundance fitness is -0.042 ± 0.063.

Take R74A: the abundance fitness came to 0.027 ± 0.046.

Regarding R52Y, the abundance fitness is -0.234 ± 0.11.

As for R52K, the abundance fitness is -0.056 ± 0.075.

Take I3A: the abundance fitness is -0.157 ± 0.044.

Consider I3K, for which the abundance fitness is -0.196 ± 0.057.

D9Q: the abundance fitness is -0.092 ± 0.072.
